Substitutions are numbered along the chain they refer to. Numbers in names are those of the source. Where “and” joins values, the source holds several entries; their conditions need not be identical. Identical values can stand only once.
T1: biotin-labeled cynomolgus monkey CD137 fused to human IgG1 Fc fragment (cynomolgus monkey; human, UniProt Q07011 24-186, limits assumed, biotin-labeled)
T1 construct: also called cyno CD137-Fc; not shown: human IgG1 Fc fragment
T1 chain: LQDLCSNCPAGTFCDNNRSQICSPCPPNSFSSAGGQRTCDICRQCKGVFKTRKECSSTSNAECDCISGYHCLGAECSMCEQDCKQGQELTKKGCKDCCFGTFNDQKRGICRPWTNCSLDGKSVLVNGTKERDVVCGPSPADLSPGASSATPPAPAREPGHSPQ

B1: CE115HA000 V11L/D72A/L78I/D101Q with GGGSGGGS inserted between Kabat 99 and 100, one-arm antibody (antibody)
chain 1: QVQLVESGGGLVQPGRSLRLSCAASGFTFSNAWMHWVRQAPGKGLEWVAQIKAKSNNYATYYAESVKGRFTISRADSKNSIYLQMNSLKTEDTAVYYCRYVHYGAGGGSGGGSYYGVQAWGQGTTVTVSSASTKGPSVFPLAPSSKSTSGGTAALGCLVKDYFPEPVTVSWNSGALTSGVHTFPAVLQSSGLYSLSSVVTVPSSSLGTQTYICNVNHKPSNTKVDKKVEPKSCDKTHTCPPCPAPEAAGGPSVFLFPPKPKDTLMISRTPEVTCVVVDVSHEDPEVKFNWYVDGVEVHNAKTKPREEQYASTYRVVSVLTVLHQDWLNGKEYKCKVSNKALPAPIEKTISKAKGQPREPQVYTLPPSRCELTKNQVSLSCAVKGFYPSDIAVEWESNGQPENNYKTTPPVLDSDGSFFLVSKLTVDKSRWQQGNVFSCSVMHEALHNHYTQKSLSLSPDYKDDDDK
chain 2: EPKSSDKTHTCPPCPAPELLGGPSVFLFPPKPKDTLMISRTPEVTCVVVDVSHEDPEVKFNWYVDGVEVHNAKTKPREEQYNSTYRVVSVLTVLHQDWLNGKEYKCKVSNKALPAPIEKTISKAKGQPREPQVCTLPPSRDELTKNQVSLWCLVKGFYPSDIAVEWESNGQPENNYKTTPPVLDSDGSFFLYSKLTVDKSRWQQGNVFSCSVMHEALHNRYTQKSLSLSP
chain 3: DIVMTQSPLSLPVTPGEPASISCRSSQSLVHSNRNTYLHWYQQKPGQAPRLLIYKVSNRFSGVPDRFSGSGSGTDFTLKISRVEAEDVGVYYCGQGTQVPYTFGQGTKLEIKRTVAAPSVFIFPPSDEQLKSGTASVVCLLNNFYPREAKVQWKVDNALQSGNSQESVTEQDSKDSTYSLSSTLTLSKADYEKHKVYACEVTHQGLSSPVTKSFNRGEC
B2: CE115HA000 V11L/D72A/L78I/D101Q without insertion, one-arm antibody (antibody, human IgG1, kappa, L234A L235A, N297A, name in Kabat numbering)
heavy: QVQLVESGGGLVQPGRSLRLSCAASGFTFSNAWMHWVRQAPGKGLEWVAQIKAKSNNYATYYAESVKGRFTISRADSKNSIYLQMNSLKTEDTAVYYCRYVHYGAYYGVQAWGQGTTVTVSSASTKGPSVFPLAPSSKSTSGGTAALGCLVKDYFPEPVTVSWNSGALTSGVHTFPAVLQSSGLYSLSSVVTVPSSSLGTQTYICNVNHKPSNTKVDKKVEPKSCDKTHTCPPCPAPEAAGGPSVFLFPPKPKDTLMISRTPEVTCVVVDVSHEDPEVKFNWYVDGVEVHNAKTKPREEQYASTYRVVSVLTVLHQDWLNGKEYKCKVSNKALPAPIEKTISKAKGQPREPQVYTLPPSRCELTKNQVSLSCAVKGFYPSDIAVEWESNGQPENNYKTTPPVLDSDGSFFLVSKLTVDKSRWQQGNVFSCSVMHEALHNHYTQKSLSLSPDYKDDDDK
chain: B1 chain 2
light: B1 chain 3
notes: one-arm antibody; 'No insertion' read as the altered H chain without linker; also called No insertion
B3: CE115HA000 V11L/D72A/L78I/D101Q with GGSGGSGGS inserted between Kabat 99 and 100, one-arm antibody (antibody)
chain 1: QVQLVESGGGLVQPGRSLRLSCAASGFTFSNAWMHWVRQAPGKGLEWVAQIKAKSNNYATYYAESVKGRFTISRADSKNSIYLQMNSLKTEDTAVYYCRYVHYGAGGSGGSGGSYYGVQAWGQGTTVTVSSASTKGPSVFPLAPSSKSTSGGTAALGCLVKDYFPEPVTVSWNSGALTSGVHTFPAVLQSSGLYSLSSVVTVPSSSLGTQTYICNVNHKPSNTKVDKKVEPKSCDKTHTCPPCPAPEAAGGPSVFLFPPKPKDTLMISRTPEVTCVVVDVSHEDPEVKFNWYVDGVEVHNAKTKPREEQYASTYRVVSVLTVLHQDWLNGKEYKCKVSNKALPAPIEKTISKAKGQPREPQVYTLPPSRCELTKNQVSLSCAVKGFYPSDIAVEWESNGQPENNYKTTPPVLDSDGSFFLVSKLTVDKSRWQQGNVFSCSVMHEALHNHYTQKSLSLSPDYKDDDDK
chain 2: B1 chain 2
chain 3: B1 chain 3
B4: CE115HA000 one-arm antibody (antibody, human IgG1, kappa, L234A L235A, N297A)
heavy: B2 heavy with L11V, A75D, I81L, Q110D
chain: B1 chain 2
light: B1 chain 3
notes: one-arm antibody
B5: dBBDu_011 (antibody, V domains shown)
VH: QVQLVESGGGLVQPGRSLRLSCAASGFTFSNAWMHWVRQAPGKGLEWVAQIKDKSSLYNTYYAPSVKGRFTISRDDSKNSIYLQMNSLKTEDTAVYYCRYVHYGASYGFLFAGYGVDAWGQGTTVTVSS
VL: DIVMTQSPLSLPVTPGEPASISCRSSQSLVHSNRNTYLHWYQQKPGQAPRLLIYKVSNRFSGVPDRFSGSGSGTDFTLKISRVEAEDVGVYYCGQGTQVPYTFGQGTKLEIK
notes: converted to IgG with human H and L chain constant domains; also called clone 011
B6: DADU01_3#002 (antibody, IgG1, V domains shown)
VH: QVQLVESGGGLVQPGRSLRLSCAASGFTFSNAWMHWVRQAPGKGLEWVAQIKDKQNLYNAYYAESVKGRFTISRDDSKNSIYLQMNSLKTEDTAVYYCHYVHYASASTVLPAFGVDAWGQGTTVTVSS
VL: B5 VL
notes: IgG1; also called dBBDu124
B7: GPC3/CD137xCD3 trispecific antibody (other)
VH 1: QVQLQQWGAGLLKPSETLSLTCAVYGGSFSGYYWSWIRQSPEKGLEWIGEINHGGYVTYNPSLESRVTISVDTSKNQFSLKLSSVTAADTAVYYCARDYGPGNYDWYFDLWGRGTLVTVSS
VL 1: EIVLTQSPATLSLSPGERATLSCRASQSVSSYLAWYQQKPGQAPRLLIYDASNRATGIPARFSGSGSGTDFTLTISSLEPEDFAVYYCQQRSNWPPALTFGGGTKVEIK
VH 2: QVQLVESGGGLVQPGRSLRLSCAASGFTFSNAWMHWVRQAPGKGLEWVAQIKDRANSYNTYYAESVKGRFTISRDDSKNSIYLQMNSLKTEDTAVYYCRYVHYTTYAGSSFSYGVDAWGQGTTVTVSS
VL 2: B5 VL with S28P
VH 3: QVQLVQSGAEVKKPGASVTVSCKASGYTFTDYEMHWIRQPPGEGLEWIGAIDGPTPDTAYSEKFKGRVTLTADKSTSTAYMELSSLTSEDTAVYYCTRFYSYTYWGQGTLVTVSS
VL 3: B5 VL with S28P
notes: mAb AB made by CrossMab and Fab-arm exchange; silent Fc (L235R, G236R, S239K, N297A); also called anti-GPC3/CD137xCD3
B8: DXDU01_3#019 (antibody, IgG1, V domains shown)
VH: QVQLVESGGGLVQPGRSLRLSCAASGFTFSIAWMHWVRQAPGKGLEWVAQIKDKVNGYTAYYAESVKGRFTISRDDSKNSIYLQMNSLKTEDTAVYYCRYVHYAAYYDVLGYGGVDAWGQGTTVTVSS
VL: B5 VL
notes: IgG1; also called dBBDu125
B9: DADU01_3#001 (antibody, IgG1, V domains shown)
VH: B8 VH with K54R, G57A, T59E, E64P, A105S, V109L
VL: B5 VL
notes: IgG1; also called dBBDu_126; dBBDu126
B10: DXDU01_3#094 (antibody, IgG1, V domains shown)
VH: B6 VH with Q55G, L57A, N59A, E64P, S107A, T108G, V109G, A112G
VL: B5 VL
notes: IgG1; also called dBBDu121
B11: DADU01_3#018 (antibody, IgG1, V domains shown)
VH: B6 VH with K54R, Q55A, L57S, E64P, A104S, S105A, V109L, A112S
VL: B5 VL
notes: IgG1; also called dBBDu123
B12: DXDU01_3#051 (antibody, IgG1, V domains shown)
VH: B6 VH with K54R, Q55G, N56Q, L57Q, E64P, T108S, A112G, F113Y
VL: B5 VL
notes: IgG1; also called dBBDu127
B13: dBBDu181 (antibody, IgG1, V domains shown)
VH: B6 VH with V48I, K54R, Q55G, L57N, A60N, E64P, S105T, V109L, P111G, F113Y
VL: B5 VL
notes: IgG1

Experiments:
[1] = molecular target: biotinylated CD3 epsilon epitope peptide; assay: SPR, method of Ref. Ex. 3, one-arm Ab
human CD137 = molecular target: T2, human CD137 (human, UniProt Q07011 24-186); assay: ECL, IgG with biotinylated antigen on streptavidin plate, log axis
T2 construct: soluble Biacore analyte; also called hCD137; recombinant human CD137

[2] = molecular target: T3, biotin labeled human IgG1 Fc (human, UniProt P01857-1 104-330 = IgG part, limits assumed, biotin-labeled); assay: bead ELISA, IgG
T3 construct: domain: Fc region; control antigen; also called human Fc

recombinant human CD3 = molecular target: T4, recombinant human CD3 (human); assay: SPR, Ab captured by anti-Fc, 37 C
T4 construct: also called hCD3

[3] = molecular target: T1, biotin-labeled cynomolgus monkey CD137 …; assay: ELISA, IgG
[4] = molecular target: T5, biotin-labeled human CD137 fused to human IgG1 Fc fragment (human, biotin-labeled); assay: bead ELISA; no competitor
T5 construct: also called human CD137-Fc; biotin-human CD137-Fc

Row | Binder | Kd [1] | RLU [2] | further results
1 | B1 | 41.3 nM and 37.5 nM | – | –
2 | B2 | 6.96 nM | – | –
3 | B3 | 43.9 nM and 35.4 nM | – | –
4 | B4 | 110 nM | – | –
5 | B5 | – | – | binding result (human CD137): binds
6 | B6 | – | 1920 RLU | –
7 | B7 | – | – | Kd (recombinant human CD3): 19.7 nM; koff (recombinant human CD3): 0.00161 s⁻¹; kon (recombinant human CD3): 81800 M⁻¹ s⁻¹
8 | B8 | – | 3260 RLU | –
9 | B9 | – | 1760 RLU | –
10 | B10 | – | 2370 RLU | –
11 | B11 | – | 1900 RLU | –
12 | B12 | – | 2910 RLU | –
13 | B13 | – | – | binding result [3]: binds; ELISA signal [4]: 3240
